Literature values in patent US8168409B2, “Compositions and methods relating to anti-IGF-1 receptor antibodies” (Amgen Inc., priority 2004, dated 2012).

Molecular target: IGF-1R (Homo sapiens, UniProt P08069)
Conditions: biphasic binding; high affinity component

## IGF-2: insulin-like growth factor 2, ligand of IGF-1R
  Kd: ~0.2 nM
